# Laboratory results as given in US20190241619A1.
# Biological target: HLA-B15 (human)
# Test: experimental peptide-HLA binding affinity; method not described
row,Binding affinity,Substance
1,4.68 µM,HPV16 E7/15-23 peptide …
2,38.5 µM,HPV16 E7/15-24 peptide …
3,7.3 µM,HPV16 E7/15-25 peptide …
